From patent publication KR20200110551A come the findings set out here.

Assay [1] addresses FMDV 혈청형 O (진천주) (Foot and Mouth Disease Virus serotype O (Jincheon strain)).
For assay [2] the target is unchanged. Briefly: cell-based or functional assay.

B1: 단클론항체 8B87 (antibody, V domains shown)
VH: KKPGETVKISCKASGYTFTNYGVSWVKQVPGKGLKWMGWINTNTGKPAYADDFKGRFAFYLDTSASTAYLQISNLKNEDEATYFCVIYHDYLWFAYWGQGTLITVSA
VL: NIVLTQSPASLAVSLGQRATISCRASNSVDTYGNSFMHWYQQRPGQPPKLLIFLASDLESGVPGRFRGSGSRTDFTLTIDPVEADDAATYYCQQNYADPWTFGGGTKLEIK
In the case of B1, the ELISA screening plate (O.D 450nm) in assay [1] stood at 2.23 O.D 450nm. In assay [2], this molecule displayed a VNT titer of 64.
